This series concerns the target keratin (substrate of the keratinase activity assay).

B1: keratinase derived from Brevibacillus parabrevis (CGMCC No. 10798), parent keratinase (protein)
chain: AQTVPYGIPQIKAPAVHAQGYKGANVKVAVLDTGIHAAHPDLNVAGGASFVPSEPNATQDFQSHGTHVAGTIAALDNTIGVLGVAPSASLYAVKVLDRYGDGQYSWIISGIEWAVANNMDVINMSLGGPSGSTALKNTVDTANNRGVVVVAAAGNSGSSGSSSTVGYPAKYDSTIAVANVNSNNVRNSSSSAGPELDVSAPGTSILSTVPSSGYTSYTGTSMASPHVAGAAALILSKNPNLTNSQVRQRLENTATPLGDSFYYGKGLINVQAASN
B1: the Km turned out to be 2.1 mM.

B2: keratinase mutant S236C (protein)
chain: AQTVPYGIPQIKAPAVHAQGYKGANVKVAVLDTGIHAAHPDLNVAGGASFVPSEPNATQDFQSHGTHVAGTIAALDNTIGVLGVAPSASLYAVKVLDRYGDGQYSWIISGIEWAVANNMDVINMSLGGPSGSTALKNTVDTANNRGVVVVAAAGNSGSSGSSSTVGYPAKYDSTIAVANVNSNNVRNSSSSAGPELDVSAPGTSILSTVPSSGYTSYTGTSMASPHVAGAAALILCKNPNLTNSQVRQRLENTATPLGDSFYYGKGLINVQAASN
With B2, the Km was found to be 2.2 mM.

B3: keratinase mutant T218S (protein)
chain: AQTVPYGIPQIKAPAVHAQGYKGANVKVAVLDTGIHAAHPDLNVAGGASFVPSEPNATQDFQSHGTHVAGTIAALDNTIGVLGVAPSASLYAVKVLDRYGDGQYSWIISGIEWAVANNMDVINMSLGGPSGSTALKNTVDTANNRGVVVVAAAGNSGSSGSSSTVGYPAKYDSTIAVANVNSNNVRNSSSSAGPELDVSAPGTSILSTVPSSGYTSSTGTSMASPHVAGAAALILSKNPNLTNSQVRQRLENTATPLGDSFYYGKGLINVQAASN
Consider B3, for which the Michaelis constant (Km) was found to be 1.5 mM.

B4: keratinase double mutant N181D-T218S (protein)
chain: AQTVPYGIPQIKAPAVHAQGYKGANVKVAVLDTGIHAAHPDLNVAGGASFVPSEPNATQDFQSHGTHVAGTIAALDNTIGVLGVAPSASLYAVKVLDRYGDGQYSWIISGIEWAVANNMDVINMSLGGPSGSTALKNTVDTANNRGVVVVAAAGNSGSSGSSSTVGYPAKYDSTIAVANVDSNNVRNSSSSAGPELDVSAPGTSILSTVPSSGYTSYSGTSMASPHVAGAAALILSKNPNLTNSQVRQRLENTATPLGDSFYYGKGLINVQAASN
Regarding B4, the Km was determined as 1.8 mM.

B5: keratinase mutant N181D (protein)
chain: AQTVPYGIPQIKAPAVHAQGYKGANVKVAVLDTGIHAAHPDLNVAGGASFVPSEPNATQDFQSHGTHVAGTIAALDNTIGVLGVAPSASLYAVKVLDRYGDGQYSWIISGIEWAVANNMDVINMSLGGPSGSTALKNTVDTANNRGVVVVAAAGNSGSSGSSSTVGYPAKYDSTIAVANVDSNNVRNSSSSAGPELDVSAPGTSILSTVPSSGYTSYTGTSMASPHVAGAAALILSKNPNLTNSQVRQRLENTATPLGDSFYYGKGLINVQAASN
With B5, the Km was found to be 1.9 mM.

As a reminder, the Km is the substrate concentration at which the rate is half of its maximum.

For the origin of these results see patent US20200385745.
